{"source": "patent US6423680B1", "about": "“Inhibitor of platelet activating factor” (HSC Research and Development Limited Partnership, priority 1998, dated 2002)", "key": {"[1]": {"test_system": "PAF", "test": "Calcium release assay in INDO-1 AM-loaded neutrophils", "type": "cell-based, human", "procedure": "Neutrophils were isolated from heparinized venous blood collected from healthy volunteers as previously reported (Laneuville et al., Biochem. J. 295:393-397, 1993). Neutrophils (1 ml, 10^7 cells) were loaded with a […] solution of a fluorescent dye, INDO-1 AM (Calbiochem.) for use in calculating [Ca^2+]i as previously reported (Laneuville et al., supra; Reynaud and Pace-Asciak, Prostaglandins Leukot. Essent. Fatty Acids 56:9-12,1997). For each measurement, 2×10^6 cells were used in 1 ml of cell medium in a temperature-controlled (37° C.) plastic cuvette with continuous stirring. Varying concentrations of functional GM2 activator protein and non-functional truncated GM2 activator protein (i.e. 0, 0.32 and 0.8 nmol) were added to individual cuvettes. Following equilibration of the assay mix, PAF (0.002 nmol) was added and the increase in [Ca^2+]i calculated by a determination of fluorescence. Fluorescence was measured using a Perkin-Elmer fluorescence spectrophotometer as previously reported (Reynaud and Pace-Asciak, supra).\nThe PAF-response was inhibited by 75% when 800 pmol (15 μg/ml) of activator was present, but not at all in the presence of 800 pmol of the non-functional truncated activator."}, "[2]": {"target": "T1, GM2 activator protein (Homo sapiens, UniProt P17900)", "T1 construct": "ID NO; His6 (N); made in house", "T1 sequence (P17900 32-193)": "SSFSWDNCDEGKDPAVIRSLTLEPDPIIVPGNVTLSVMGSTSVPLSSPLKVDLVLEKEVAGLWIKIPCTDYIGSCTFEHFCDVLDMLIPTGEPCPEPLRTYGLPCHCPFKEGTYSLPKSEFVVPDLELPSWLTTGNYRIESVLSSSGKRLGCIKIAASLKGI", "test": "Fluorescence dequenching assay (R-18 transport between liposomes; ligand binding)", "procedure": "The ability of the activator protein to bind GM2 ganglioside, PAF, N-formyl-Met-Leu-Phe (fMLP), or leukotriene B4 (LTB4) was assessed using a fluorescence dequenching assay. This assay was first used to evaluate the ability of the activator to transport a self-quenching fluorescence dye, R-18 (octadecylrhodamine conjugated to a saturated C-18 hydrocarbon chain) (obtained from Molecular Probes), between labeled and unlabeled liposomes (phosphatidylcholine containing large unilamellar vesicles, PC-LUV8). An increase in fluorescence over time when the activator protein and unlabeled liposomes were admixed with R-18 labeled liposomes indicates the ability of the activator to transport the R-18 dye, the fluorescence of which is proportional to concentration of dye that is transported to the unlabelled liposomes. […]\nThe R-18 labeled liposomes were prepared as follows. […] The column was then eluted with NHE buffer to yield a quantity of labeled liposomes sufficient for 10 assays.\nIn each fluorescence dequenching assay, 5 μg of activator protein was mixed with 630 nmol of unlabeled liposomes. […] The rate of increase in fluorescence emission was then determined by monitoring at 590 nm, using an excitation wavelength of 560 nm, on a 650-40 fluorometer (Perkin-Elmer). […]\nThe fluorescence dequenching of the R-18 liposome preparations was measured and calculated as follows. […]"}, "[3]": {"target": "T2, β-hexosaminidase A (Homo sapiens, UniProt P06865+P07686)", "T2 sequence (P06865 89-529)": "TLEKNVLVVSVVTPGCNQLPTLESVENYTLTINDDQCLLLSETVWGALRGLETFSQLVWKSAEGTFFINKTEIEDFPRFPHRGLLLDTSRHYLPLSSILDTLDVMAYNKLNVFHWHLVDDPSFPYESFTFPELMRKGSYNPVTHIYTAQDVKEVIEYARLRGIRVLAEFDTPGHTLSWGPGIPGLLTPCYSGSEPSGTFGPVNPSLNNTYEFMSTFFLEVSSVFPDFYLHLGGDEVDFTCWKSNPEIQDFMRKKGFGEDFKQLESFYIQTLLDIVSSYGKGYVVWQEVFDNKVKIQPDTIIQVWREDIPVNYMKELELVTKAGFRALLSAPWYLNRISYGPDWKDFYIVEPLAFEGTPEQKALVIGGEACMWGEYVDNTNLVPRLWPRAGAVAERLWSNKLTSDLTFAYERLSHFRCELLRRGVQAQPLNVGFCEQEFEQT", "T2 sequence (P07686 122-556)": "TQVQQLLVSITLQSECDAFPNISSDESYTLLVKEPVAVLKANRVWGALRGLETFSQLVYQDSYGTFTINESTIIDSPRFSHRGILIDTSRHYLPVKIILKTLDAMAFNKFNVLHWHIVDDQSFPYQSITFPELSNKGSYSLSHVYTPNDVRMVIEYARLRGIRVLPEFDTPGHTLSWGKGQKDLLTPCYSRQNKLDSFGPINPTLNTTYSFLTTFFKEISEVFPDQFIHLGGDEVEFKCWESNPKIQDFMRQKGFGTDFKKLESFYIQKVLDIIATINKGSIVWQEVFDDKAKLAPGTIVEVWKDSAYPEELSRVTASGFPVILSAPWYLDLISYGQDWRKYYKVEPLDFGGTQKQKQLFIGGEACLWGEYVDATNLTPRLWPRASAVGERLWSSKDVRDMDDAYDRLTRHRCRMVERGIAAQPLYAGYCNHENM", "T2 sequence (P17900 32-193 partner)": "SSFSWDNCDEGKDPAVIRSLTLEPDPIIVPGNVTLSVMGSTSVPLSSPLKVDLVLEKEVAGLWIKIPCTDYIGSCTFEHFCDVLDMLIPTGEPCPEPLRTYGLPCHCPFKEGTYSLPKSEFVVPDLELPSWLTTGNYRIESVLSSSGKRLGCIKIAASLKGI", "test": "Conventional biological assay: co-factor for hydrolysis of GM2 ganglioside by β-hexosaminidase A", "type": "biochemical", "source_text": "The conventional biological assay for the GM2 activator involves its function as a substrate specific co-factor for the hydrolysis of GM2 ganglioside by β-hexosaminidase A. This assay (described in detail in Meier et al., J. Biol. Chem., 266:1879-1887, 1991) requires that the activator has a functional hydrophobic binding site."}}, "data": [{"molecule": "functional activator: Non-glycosylated GM2 activator protein from His6-tag bacterial expression system, SEQ ID NO: 2 (protein, His6-tag; non-glycosylated; His tag at residues 1 to 17) MRGSHHHHHHGSIEGRSSFSWDNCDEGKDPAVIRSLTLEPDPIVVPGNVTLSVVGSTSVPLSSPLKVDLVLEKEVAGLWIKIPCTDYIGSCTFEHFCDVLDMLIPTGEPCPEPLRTYGLPCHCPFKEGTYSLPKSEFVVPDLELPSWLTTGNYRIESVLSSSGKRLGCIKIAASLKGI", "values": [{"measurement": "inhibition of PAF-response", "setting": "[1]; 800 pmol (15 μg/ml) of activator present, PAF 0.002 nmol", "result": 75, "unit": "%"}, {"measurement": "release of intracellular calcium pools into the cytosol after PAF", "setting": "[1]; PAF added to cuvettes containing the functional activator", "result": "significant decrease"}, {"measurement": "change in [Ca2+]i on addition of extracellular activator protein alone", "setting": "[1]; added to suspension of INDO-1 AM-loaded cells, before PAF", "result": "did not result in a change in [Ca^2+]i"}, {"measurement": "transport of R-18 between labeled and unlabeled liposomes", "setting": "[2]; 5 μg activator, 37° C., pH 5, increase in fluorescence over time", "result": "found to transport R-18"}, {"measurement": "slope of fluorescence dequenching", "setting": "[2]; activator in the absence of a ligand compound", "result": "0.256 ΔFu/ΔT(min)"}, {"measurement": "specific activity as co-factor, compared with wild-type glycosylated precursor activator (CHO cells)", "setting": "[3]", "result": "functioned in a similar manner to the wildtype activator"}]}]}
